Data on one substance can be found in article doi:10.1101/2023.10.13.562161.

This experiment addresses VanX^C78/157S. The experiment is described as follows: SEC. (Size exclusion chromatography separates by hydrodynamic size, large species first.)

Turning to VanX^C78/157S (enzyme), the stoichiometry N (in general, a count of units in the complex or per binding partner) turned out to be 2.
